Laboratory results taken from article PMC12414692.

Assays:
[1] = molecular target: hNaV1.5 ΔKPQ (deletion of lysine, proline and glutamine at positions 1505–1507) (human) (UniProt Q14524)
[2] = molecular target: hNaV1.5 (human voltage-activated sodium channel alpha subunit NaV1.5, wild type) (human) (UniProt Q14524)

KKLITFILKKTREK [β4 peptide (derived from Homo sapiens sodium channel β4 subunit)]
normalized INaR peak current, whole-cell voltage clamp of HEK293T cells, 30 μM β4 peptide in the pipette, against wild-type hNaV1.5 with the peptide (fold (against wild type with β4 peptide)) [1]: 2 | current availability at pulse III (0 mV) after conditioning pulses from −20 to 90 mV and 5 ms at −100 mV, 30 μM β4 peptide in the pipette [2]: 1.5 fold
